From the supplement of paper PMC9170038

Test system: MS2 coat protein
Experiment: apparent KD of MS2 coat protein; designed switch direction (-1 OFF switch, 1 ON switch): 1; higher = weaker reporter binding
Outline: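 Stalled E. coli RNA polymerase transcribed designed RNA switches on Illumina chips, which were then titrated with SNAP-549-labelled MS2 coat protein, doubling from 0.7 or 1.5 nM to 3 µM. Steps lasted from 0.8–1.5 h at the lowest concentration to 10–20 min at the highest. The apparent KD is each design's median over clusters of curve-fitted normalised fluorescence.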

[1] = input ligand: microRNA oligo, concentration not stated

Sequence	apparent KD of MS2 coat protein (input ligand: FMN 200 uM) [µM]	apparent KD of MS2 coat protein [1] [µM]	apparent KD of MS2 coat protein (input ligand: none) [µM]	apparent KD of MS2 coat protein (Eterna round: R95, input ligand: FMN 200 uM) [µM]	apparent KD of MS2 coat protein (Eterna round: R95, input ligand: microRNA oligo, concentration not stated) [µM]	apparent KD of MS2 coat protein (Eterna round: R95, input ligand: none) [µM]
GGUCGGUCCUACAUGAGGAUCACCCAUGUUCCGGAAACGGCAUAGGAUAUCUGUCCGAAAAGGUCAGAGAAGGGUGAACCGACC [Fiskers NG3ss - 73] (Eterna round: R96, puzzle: Same State NG 3)	0.153	0.118	0.189	–	–	–
GGUGCCAAAUAAGCCUACAUGAGGAUCACCCAUGUAUGUAGGUAGGAUAUCGUUUGCAAAGCAAACGAGAAGGGCCUAGGCACC [Mat - Same State NG 3 - JL Mod - D59] (Eterna round: R96, puzzle: Same State NG 3)	0.0261	0.0393	0.0507	–	–	–
GGUGCCAAUAAAGCCUACAUGAGGAUCACCCAUGUAUGUAGGCAGGAUAUCGUUUGCAAAGCAAACGAGAAGGGCCUAGGCACC [Mat - Same State NG 3 - JL Mod - D61] (Eterna round: R96, puzzle: Same State NG 3)	0.0186	0.0214	0.0315	–	–	–
GGUGGGUUGCUACCGGCACAUGAGGAUCACCCAUGUUUUGGGAAGGAUAUGGUACCUAUUUGGUACCAGAAGGUCCCGUUGGUG [salish99_SSNG3_r04_708] (Eterna round: R96, puzzle: Same State NG 3)	–	0.176	–	–	–	–
GGUGUACAUGAGGAUCACCCAUGUCGACCGCUCACAGGAUAUUUAAUACAAACUGGUAGCGGAGAAGGGUGAGGAA [Oresbeve] (Eterna round: R96, puzzle: Same State 1)	0.523	0.16	0.188	–	–	–
GGUGUACAUGAGGAUCACCCAUGUCGACCGCUCACAGGAUAUUUAAUACAAACUGGUAGCGGAGAAGGGUGAGGAA [Oresbeve] (puzzle: Same State 1)	–	–	–	0.164	0.0957	0.247
GUACAGAUCAGAGGAUAUCACGUCGUUUAGACGUGAGAAGGCUGAUCACACAUGAAUAUUAGUACAUGAGGAUCACCCAUGUAC [SSNG1/15-A3] (Eterna round: R96, puzzle: Same State NG 1)	0.0137	0.0134	0.0175	–	–	–
GUACAUAUCAGAGGAUAUCACGUCGAAUAGACGUGAGAAGGCUGAUCACACAUGAAUAUUAAUACAUGAGGAUCACCCAUGUAC [SSNG1/13-A1] (Eterna round: R96, puzzle: Same State NG 1)	0.0169	0.0245	0.0312	–	–	–
GUAGCAUACCGAGGAUAUUCAUAUAACAUGAGGAUCACCCAUGUAAGGCCACAUUAGUGGCCUUGGGAGAAGGCGGAAUGCUAC [Xeonanis - 20 Mod41] (Eterna round: R96, puzzle: Same State NG 2)	0.0117	0.0635	0.0771	–	–	–
GUAGCAUACCGAGGAUAUUCAUAUAAUAAAUAACAUGAGGAUCACCCAUGUUGGCGAAAGCCUUGGGAGAAGGCGGAAUGCUAC [Xeonanis - 20 Mod56] (Eterna round: R96, puzzle: Same State NG 2)	0.0135	0.0458	0.0555	–	–	–
GUAGCAUACCGAGGAUAUUCAUAUACAUGAGGAUCACCCAUGUUGGCCAGCAUUAGCUGGCCUUGGGAGAAGGCGGAAUGCUAC [Xeonanis - 20 Mod50] (Eterna round: R96, puzzle: Same State NG 2)	0.0189	0.0794	0.141	–	–	–
GUAGCAUACCGAGGAUAUUCAUAUUAUAACAUGAGGAUCACCCAUGUUGGCCGAUUACGGCCUUGGGAGAAGGCGGAAUGCUAC [Xeonanis - 20 Mod18] (Eterna round: R96, puzzle: Same State NG 2)	0.0158	0.0741	0.0843	–	–	–
